Assay results published in patent US20110105394A1 (Novo Nordisk, published 2011).
*1 amine or outer side, *2 acyl side, *3 side chain or, on linkers, in order; H or OH if unused. Bridges are numbered along the chain shown (N, C = ends). Where no end group is shown, it is not given here. Side-chain parts run from the residue outwards. The star is where a group is joined. X2 = (S)‑4‑Carboxy‑4‑(19-carboxynonadecanoylamino)butyryl, O=C(O)CCCCCCCCCCCCCCCCCCC(=O)N[C@@H](CCC(=O)*)C(=O)O; C20 diacid = O=C(O)CCCCCCCCCCCCCCCCCCC(=O)*; γGlu = O=C(O)[C@H](CCC(=O)[*:2])N[*:1]; AEEA = NCCOCCOCC(=O)O

B1: N-alpha-[(S)-4-Carboxy-4-(19-carboxynonadecanoylamino)butyryl]-Arg-[Pro17]-pramlintide (peptide)
peptide: X2-RKCNTATCATQRLANFLPHSSNNFGPILPPTNVGSNTY-NH2
modifications: disulfide 3-8
SMILES: CC[C@H](C)[C@H](NC(=O)[C@@H]1CCCN1C(=O)CNC(=O)[C@H](Cc1ccccc1)NC(=O)[C@H](CC(N)=O)NC(=O)[C@H](CC(N)=O)NC(=O)[C@H](CO)NC(=O)[C@H](CO)NC(=O)[C@H](Cc1c[nH]cn1)NC(=O)[C@@H]1CCCN1C(=O)[C@H](CC(C)C)NC(=O)[C@H](Cc1ccccc1)NC(=O)[C@H](CC(N)=O)NC(=O)[C@H](C)NC(=O)[C@H](CC(C)C)NC(=O)[C@H](CCCNC(=N)N)NC(=O)[C@H](CCC(N)=O)NC(=O)[C@@H](NC(=O)[C@H](C)NC(=O)[C@@H]1CSSC[C@H](NC(=O)[C@H](CCCCN)NC(=O)[C@H](CCCNC(=N)N)NC(=O)CC[C@H](NC(=O)CCCCCCCCCCCCCCCCCCC(=O)O)C(=O)O)C(=O)N[C@@H](CC(N)=O)C(=O)N[C@@H]([C@@H](C)O)C(=O)N[C@@H](C)C(=O)N[C@@H]([C@@H](C)O)C(=O)N1)[C@@H](C)O)C(=O)N[C@@H](CC(C)C)C(=O)N1CCC[C@H]1C(=O)N1CCC[C@H]1C(=O)N[C@H](C(=O)N[C@@H](CC(N)=O)C(=O)N[C@H](C(=O)NCC(=O)N[C@@H](CO)C(=O)N[C@@H](CC(N)=O)C(=O)N[C@H](C(=O)N[C@@H](Cc1ccc(O)cc1)C(N)=O)[C@@H](C)O)C(C)C)[C@@H](C)O
B2: N-alpha-[2-(2-{2-[4-(S)-Carboxy-4-(19-carboxynonadecanoylamino)butyrylamino]ethoxy}ethoxy)acetyl]-Arg-[Arg17]-pramlintide (peptide)
peptide: {C20 diacid-γGlu-AEEA}-RKCNTATCATQRLANFLRHSSNNFGPILPPTNVGSNTY-NH2
modifications: disulfide 3-8
SMILES: CC[C@H](C)[C@H](NC(=O)[C@@H]1CCCN1C(=O)CNC(=O)[C@H](Cc1ccccc1)NC(=O)[C@H](CC(N)=O)NC(=O)[C@H](CC(N)=O)NC(=O)[C@H](CO)NC(=O)[C@H](CO)NC(=O)[C@H](Cc1c[nH]cn1)NC(=O)[C@H](CCCNC(=N)N)NC(=O)[C@H](CC(C)C)NC(=O)[C@H](Cc1ccccc1)NC(=O)[C@H](CC(N)=O)NC(=O)[C@H](C)NC(=O)[C@H](CC(C)C)NC(=O)[C@H](CCCNC(=N)N)NC(=O)[C@H](CCC(N)=O)NC(=O)[C@@H](NC(=O)[C@H](C)NC(=O)[C@@H]1CSSC[C@H](NC(=O)[C@H](CCCCN)NC(=O)[C@H](CCCNC(=N)N)NC(=O)COCCOCCNC(=O)CC[C@H](NC(=O)CCCCCCCCCCCCCCCCCCC(=O)O)C(=O)O)C(=O)N[C@@H](CC(N)=O)C(=O)N[C@@H]([C@@H](C)O)C(=O)N[C@@H](C)C(=O)N[C@@H]([C@@H](C)O)C(=O)N1)[C@@H](C)O)C(=O)N[C@@H](CC(C)C)C(=O)N1CCC[C@H]1C(=O)N1CCC[C@H]1C(=O)N[C@H](C(=O)N[C@@H](CC(N)=O)C(=O)N[C@H](C(=O)NCC(=O)N[C@@H](CO)C(=O)N[C@@H](CC(N)=O)C(=O)N[C@H](C(=O)N[C@@H](Cc1ccc(O)cc1)C(N)=O)[C@@H](C)O)C(C)C)[C@@H](C)O
B3: N-alpha-[(S)-4-Carboxy-4-(19-carboxynonadecanoylamino)butyryl]-Arg-[Ala17]-pramlintide (peptide)
peptide: X2-RKCNTATCATQRLANFLAHSSNNFGPILPPTNVGSNTY-NH2
modifications: disulfide 3-8
SMILES: CC[C@H](C)[C@H](NC(=O)[C@@H]1CCCN1C(=O)CNC(=O)[C@H](Cc1ccccc1)NC(=O)[C@H](CC(N)=O)NC(=O)[C@H](CC(N)=O)NC(=O)[C@H](CO)NC(=O)[C@H](CO)NC(=O)[C@H](Cc1c[nH]cn1)NC(=O)[C@H](C)NC(=O)[C@H](CC(C)C)NC(=O)[C@H](Cc1ccccc1)NC(=O)[C@H](CC(N)=O)NC(=O)[C@H](C)NC(=O)[C@H](CC(C)C)NC(=O)[C@H](CCCNC(=N)N)NC(=O)[C@H](CCC(N)=O)NC(=O)[C@@H](NC(=O)[C@H](C)NC(=O)[C@@H]1CSSC[C@H](NC(=O)[C@H](CCCCN)NC(=O)[C@H](CCCNC(=N)N)NC(=O)CC[C@H](NC(=O)CCCCCCCCCCCCCCCCCCC(=O)O)C(=O)O)C(=O)N[C@@H](CC(N)=O)C(=O)N[C@@H]([C@@H](C)O)C(=O)N[C@@H](C)C(=O)N[C@@H]([C@@H](C)O)C(=O)N1)[C@@H](C)O)C(=O)N[C@@H](CC(C)C)C(=O)N1CCC[C@H]1C(=O)N1CCC[C@H]1C(=O)N[C@H](C(=O)N[C@@H](CC(N)=O)C(=O)N[C@H](C(=O)NCC(=O)N[C@@H](CO)C(=O)N[C@@H](CC(N)=O)C(=O)N[C@H](C(=O)N[C@@H](Cc1ccc(O)cc1)C(N)=O)[C@@H](C)O)C(C)C)[C@@H](C)O
B4: N-alpha-[(S)-4-Carboxy-4-(19-carboxynonadecanoylamino)butyryl]-Arg-[Arg17]-pramlintide (peptide)
peptide: X2-RKCNTATCATQRLANFLRHSSNNFGPILPPTNVGSNTY-NH2
modifications: disulfide 3-8
SMILES: CC[C@H](C)[C@H](NC(=O)[C@@H]1CCCN1C(=O)CNC(=O)[C@H](Cc1ccccc1)NC(=O)[C@H](CC(N)=O)NC(=O)[C@H](CC(N)=O)NC(=O)[C@H](CO)NC(=O)[C@H](CO)NC(=O)[C@H](Cc1c[nH]cn1)NC(=O)[C@H](CCCNC(=N)N)NC(=O)[C@H](CC(C)C)NC(=O)[C@H](Cc1ccccc1)NC(=O)[C@H](CC(N)=O)NC(=O)[C@H](C)NC(=O)[C@H](CC(C)C)NC(=O)[C@H](CCCNC(=N)N)NC(=O)[C@H](CCC(N)=O)NC(=O)[C@@H](NC(=O)[C@H](C)NC(=O)[C@@H]1CSSC[C@H](NC(=O)[C@H](CCCCN)NC(=O)[C@H](CCCNC(=N)N)NC(=O)CC[C@H](NC(=O)CCCCCCCCCCCCCCCCCCC(=O)O)C(=O)O)C(=O)N[C@@H](CC(N)=O)C(=O)N[C@@H]([C@@H](C)O)C(=O)N[C@@H](C)C(=O)N[C@@H]([C@@H](C)O)C(=O)N1)[C@@H](C)O)C(=O)N[C@@H](CC(C)C)C(=O)N1CCC[C@H]1C(=O)N1CCC[C@H]1C(=O)N[C@H](C(=O)N[C@@H](CC(N)=O)C(=O)N[C@H](C(=O)NCC(=O)N[C@@H](CO)C(=O)N[C@@H](CC(N)=O)C(=O)N[C@H](C(=O)N[C@@H](Cc1ccc(O)cc1)C(N)=O)[C@@H](C)O)C(C)C)[C@@H](C)O
B5: N-alpha-[(S)-4-Carboxy-4-(19-carboxynonadecanoylamino)butyryl]-Arg-[Ser17]-pramlintide (peptide)
peptide: X2-RKCNTATCATQRLANFLSHSSNNFGPILPPTNVGSNTY-NH2
modifications: disulfide 3-8
SMILES: CC[C@H](C)[C@H](NC(=O)[C@@H]1CCCN1C(=O)CNC(=O)[C@H](Cc1ccccc1)NC(=O)[C@H](CC(N)=O)NC(=O)[C@H](CC(N)=O)NC(=O)[C@H](CO)NC(=O)[C@H](CO)NC(=O)[C@H](Cc1c[nH]cn1)NC(=O)[C@H](CO)NC(=O)[C@H](CC(C)C)NC(=O)[C@H](Cc1ccccc1)NC(=O)[C@H](CC(N)=O)NC(=O)[C@H](C)NC(=O)[C@H](CC(C)C)NC(=O)[C@H](CCCNC(=N)N)NC(=O)[C@H](CCC(N)=O)NC(=O)[C@@H](NC(=O)[C@H](C)NC(=O)[C@@H]1CSSC[C@H](NC(=O)[C@H](CCCCN)NC(=O)[C@H](CCCNC(=N)N)NC(=O)CC[C@H](NC(=O)CCCCCCCCCCCCCCCCCCC(=O)O)C(=O)O)C(=O)N[C@@H](CC(N)=O)C(=O)N[C@@H]([C@@H](C)O)C(=O)N[C@@H](C)C(=O)N[C@@H]([C@@H](C)O)C(=O)N1)[C@@H](C)O)C(=O)N[C@@H](CC(C)C)C(=O)N1CCC[C@H]1C(=O)N1CCC[C@H]1C(=O)N[C@H](C(=O)N[C@@H](CC(N)=O)C(=O)N[C@H](C(=O)NCC(=O)N[C@@H](CO)C(=O)N[C@@H](CC(N)=O)C(=O)N[C@H](C(=O)N[C@@H](Cc1ccc(O)cc1)C(N)=O)[C@@H](C)O)C(C)C)[C@@H](C)O

biological target: T1, Amylin 3(a) receptor (human calcitonin receptor (CTa) with RAMP-3) (human, UniProt P30988 25-474; O60896 24-148, limits assumed); experiment: cell-based or functional assay
T1 sequence (looked up) 1: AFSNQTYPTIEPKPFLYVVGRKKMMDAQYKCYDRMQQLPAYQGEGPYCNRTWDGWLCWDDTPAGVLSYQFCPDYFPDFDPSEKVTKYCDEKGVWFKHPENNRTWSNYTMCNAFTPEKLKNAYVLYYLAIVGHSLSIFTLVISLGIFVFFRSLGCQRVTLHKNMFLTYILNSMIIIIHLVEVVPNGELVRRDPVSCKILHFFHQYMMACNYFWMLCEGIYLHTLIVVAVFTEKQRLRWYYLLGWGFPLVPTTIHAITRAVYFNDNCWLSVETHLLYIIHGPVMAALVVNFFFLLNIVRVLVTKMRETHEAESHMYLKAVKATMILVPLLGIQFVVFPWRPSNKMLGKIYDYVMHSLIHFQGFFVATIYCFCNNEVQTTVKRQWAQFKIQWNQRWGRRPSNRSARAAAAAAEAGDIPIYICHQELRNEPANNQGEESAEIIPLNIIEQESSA
T1 sequence (looked up) 2: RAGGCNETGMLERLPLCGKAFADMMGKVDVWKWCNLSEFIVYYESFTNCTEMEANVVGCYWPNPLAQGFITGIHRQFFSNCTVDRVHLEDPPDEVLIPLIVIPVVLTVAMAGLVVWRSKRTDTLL

Row | Binder | Potency Luciferase [nM]
1 | B1 | 2
2 | KCK([Glu-Arg-Glu-Glu-C20 diacid])TATCATQRLANFLHHSSDNFGPILPPTNVGSNTY-NH2 (disulfide 2-7) [N-epsilon3-(19-carboxynonadecanoyl-Glu-Glu-Arg-Glu)-[Lys3,His17,Asp21]-pramlintide] | 0.9
3 | B2 | 0.1
4 | B3 | 0.1
5 | B4 | 0.1
6 | B5 | 0.1
